Results reported in article PMC2877510 (Journal of biomolecular NMR, 2010).

Columns and labels:
[1] = molecular target: carboxyl terminal domain of rat Cx43 (Cx43CT; residues S255-I382) (rat, UniProt P08050 255-382); test: NMR titration
[2] = molecular target: ubiquitin (from bovine erythrocytes) (bovine, UniProt P0CG53 1-76); test: NMR titration

Sequence of carboxyl terminal domain of rat Cx43 (Cx43CT; residues S255-I382) (P08050 255-382): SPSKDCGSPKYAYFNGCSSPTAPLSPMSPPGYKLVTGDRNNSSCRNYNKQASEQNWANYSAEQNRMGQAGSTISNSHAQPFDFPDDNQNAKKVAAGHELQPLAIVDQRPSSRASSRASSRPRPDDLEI

B1: UBA domain of CIP75 (connexin43-interacting protein of approximately 75 kDa), residues M549-S596 (domain or fragment, mouse, UniProt Q99NB8 549-596, looked up)
chain: MPEVRFQQQLEQLNSMGFINREANLQALIATGGDINAAIERLLGSQLS
**Q.** Which results are given for B1?
**A.** binding result [1]: binds; binding result [2]: binds
